The values below come from paper PMC6255760 (Nature Communications, 2018).

Data set [1] deals with the molecule itself. The data set is described as follows: SEC; size-exclusion profiles of the purified NOD1/RIP2 and NOD2/RIP2 fusion proteins.
Data set [2] concerns the molecule itself. The data set is described as follows: induced oligomerization assay; RIP2 and NLRC4–CARD monomers each mixed with their own and with other seed complexes (Supplementary Figure 4d).
Data set [3] deals with the molecule itself. The data set is described as follows: negative stain EM; recombinant SNAP–RIP2–CARD seeds co-incubated with refolded monomers (about 20 μM monomer, 10:1 monomer to seed, overnight); SNAP removed with 3C protease for the core filaments; 49,000x.
Data set [4] deals with the molecule itself. The data set is described as follows: negative stain EM; FLAG-tagged proteins overexpressed in HEK293T, purified with anti-FLAG M2 agarose beads and concentrated; filaments looked for.
Data set [5] deals with the molecule itself. The data set is described as follows: cryo-EM structure; helical reconstruction of core RIP2–CARD–EM filaments, 4.1 Å (FSC = 0.143), Relion 2.0.

B1: top-down NOD1/RIP2 fusion construct (other)
chain: QPGIAQQWIQSKERDIVNQMTEACLNQSLDALLSRDLIMKEDYELVSTKPTRTSKVRQLLDTTDIQGEEFAKVIVQKLKDNKQMGLQPYPEILVVSRSPSLNLLQNKSMMEEQGHSEMEIIPSESHPHIQLLKSNRELLVTHIRNTQCLVDNLLKNDYFSAEDAEIVCACPTQPDKVRKILDLVQSKGEEVSEFFLYLLQQLADAYVDLRPWLLEIGFS
B1: the “stoichiometry N” value in data set [1] is about 4.

B2: top-down NOD2/RIP2 fusion construct (other)
chain: QPGIAQQWIQSKERDIVNQMTEACLNQSLDALLSRDLIMKEDYELVSTKPTRTSKVRQLLDTTDIQGEEFAKVIVQKLKDNKQMGLQPYPEILVVSRSPSLNLLQNKSMMCSQEAFQAQRSQLVELLVSGSLEGFESVLDWLLSWEVLSWEDYEGFHLLGQPLSHLARRLLDTVWNKGTWACQKLIAAAQEAQADSQSPKLHGCWDPHSLHPARDLQSHRPAIVRRLHSHVENMLDLAWERGFVSQYECDEIRLPIFTPSQRARRLLDLATVKANGLAAFLLQHVQELPVPLALPLEAATCK
For the protein B2, the “stoichiometry N” value in data set [1] is about 4.

B3: SNAP–RIP2–CARD (domain or fragment, human, UniProt O43353 432-540, looked up)
chain: QPGIAQQWIQSKREDIVNQMTEACLNQSLDALLSRDLIMKEDYELVSTKPTRTSKVRQLLDTTDIQGEEFAKVIVQKLKDNKQMGLQPYPEILVVSRSPSLNLLQNKSM
modifications: BG-Alexa Fluor 647 on monomers, BG-Alexa Fluor 488 on seeds (native gel assay)
notes: RIP2 (RIPK2), human, CARD domain residues 432–540; a 3C protease site lies between SNAP and the CARD; the methods also name a RIP2–CARD (432–540)–SNAP; also called SNAP–RIP2–CARD seeds; SNAP–RIP2–CARD monomers; source: E. coli BL21(DE3), purified (Ni-NTA, SEC): oligomeric seed fraction; not shown: SNAP-tag, N-terminal, kept
As for B3, the binding result in data set [2] was “binds”.

B4: core RIP2–CARD filament (SNAP removed) (domain or fragment, human, UniProt O43353 432-540, looked up)
chain: QPGIAQQWIQSKREDIVNQMTEACLNQSLDALLSRDLIMKEDYELVSTKPTRTSKVRQLLDTTDIQGEEFAKVIVQKLKDNKQMGLQPYPEILVVSRSPSLNLLQNKSM
notes: RIP2 (RIPK2), human, CARD domain residues 432–540; also called 3C-protease-digested core RIP2–CARD thin filament; source: E. coli BL21(DE3); extended SNAP–RIP2–CARD filaments digested with 3C protease, purified (Superose 6); not shown: SNAP-tag, N-terminal, cleaved
For the protein B4, the binding result in data set [3] was “binds”.

B5: FLAG–RIP2-kinase-NLRC4–CARD (other, human, UniProt O43353 1-431, looked up)
chain: MNGEAICSALPTIPYHKLADLRYLSRGASGTVSSARHADWRVQVAVKHLHIHTPLLDSERKDVLREAEILHKARFSYILPILGICNEPEFLGIVTEYMPNGSLNELLHRKTEYPDVAWPLRFRILHEIALGVNYLHNMTPPLLHHDLKTQNILLDNEFHVKIADFGLSKWRMMSLSQSRSSKSAPEGGTIIYMPPENYEPGQKSRASIKHDIYSYAVITWEVLSRKQPFEDVTNPLQIMYSVSQGHRPVINEESLPYDIPHRARMISLIESGWAQNPDERPSFLKCLIELEPVLRTFEEITFLEAVIQLKKTKLQSVSSAIHLCDKKKMELSLNIPVNHGPQEESCGSSQLHENSGSPETSRSLPAPQDNDFLSRKAQDCYFMKLHHCPGNHSWDSTISGSQRAAFCDHKTTPCSSAIINPLSTAGNSERLMNFIKDNSRALIQRMGMTVIKQITDDLFVWNVLNREEVNIICCEKVEQDAARGIIHMILKKGSESCNLFLKSLKEWNYPLFQDLNGQSLFHQTSEGDLDD
notes: RIP2 (RIPK2), human, what is left of 1–540 when the CARD domain (432–540) is replaced; NLRC4 CARD, human, residues 1–100, in place of the RIP2–CARD domain; the limit 431 is worked out from the replaced stretch 432–540; also called chimeric RIP2; NLRC4–CARD swapped construct; source: HEK293T, transfected; purified from cellular extracts (EM); in total cellular extracts (sedimentation); not shown: …
On to B5, for which, in data set [4], the binding result was “binds”.

B6: RIP2–CARD–EM (domain or fragment, human)
chain: VDEALREAQTKSAQPGIAQQWIQSKREDIVNQMTEACLNQSLDALLSRDLIMKEDYELVSTKPTRTSKVRQLLDTTDIQGEEFAKVIVQKLKDNKQMGLQPYPEILVVSRS
notes: 13 extra amino acids (13aa) attached to the N-terminus of residue 432 of RIP2–CARD; RIP2 (RIPK2), human, CARD domain 432–529 (last 11 residues of 432–540 removed); also called core RIP2–CARD–EM; RIP2–CARD (432–529); source: E. coli BL21(DE3); not shown: SNAP-tag, N-terminal, cleaved
In the case of B6, in data set [5], the binding result was “binds”.
